# Key:
# [1] = molecular target: 6xHis-tagged full-length SNX27 (human, UniProt Q96L92 1-541); test: pull-down
# [2] = molecular target: untagged full-length SNX27 (human, UniProt Q96L92 1-541); test: ITC
# [3] = molecular target: untagged SNX27 FERM domain (human, UniProt Q96L92 273-525); test: ITC
Binder,binding result [1],also measured
"DTEGEDIFTGAAVVSKHQSPKITTSLLPINNGSKENGIHEE (domain or fragment, human, UniProt Q13596 40-80, looked up) [GST-SNX1 residues 40-80]",binds,
"GST-SNX1 (residues 40-90) (domain or fragment, human, UniProt Q13596 40-90, looked up) DTEGEDIFTGAAVVSKHQSPKITTSLLPINNGSKENGIHEEQDQEPQDLFA",binds,
"GST-SNX1 (residues 40-100) (domain or fragment, human, UniProt Q13596 40-100, looked up) DTEGEDIFTGAAVVSKHQSPKITTSLLPINNGSKENGIHEEQDQEPQDLFADATVELSLDS",binds,
"GST-SNX1 (residues 1-142) (domain or fragment, human, UniProt Q13596 1-142, looked up) MASGGGGCSASERLPPPFPGLEPESEGAAGGSEPEAGDSDTEGEDIFTGAAVVSKHQSPKITTSLLPINNGSKENGIHEEQDQEPQDLFADATVELSLDSTQNNQKKVLAKTLISLPPQEATNSSKPQPTYEELEEEEQEDQ",,Kd [2]: 10 to 12 µM; Kd [3]: 12 µM
"DTEGEDIFTGA [SNX1 peptide with the first DxF motif (residues 40-50, DIF)]",,fold weaker than the SNX1 N-terminus [2]: ~2 fold; fold weaker than the SNX1 N-terminus [3]: ~2 fold
"EQDQEPQDLFA [SNX1 peptide with the second DxF motif (residues 80-90, DLF)]",,binding result [2]: binds; binding result [3]: binds
"GST-SNX2_N-terminal (1-139) (domain or fragment, human, UniProt O60749 1-139, looked up) MAAEREPPPLGDGKPTDFEDLEDGEDLFTSTVSTLESSPSSPEPASLPAEDISANSNGPKPTEVVLDDDREDLFAEATEEVSLDSPEREPILSSEPSPAVTPVTPTTLIAPRIESKSMSAPVIFDRSREEIEEEANGDI",binds,
"GST-SNX1 residues 1-60 (domain or fragment, human, UniProt Q13596 1-60, looked up) MASGGGGCSASERLPPPFPGLEPESEGAAGGSEPEAGDSDTEGEDIFTGAAVVSKHQSPK",binds,
"GST-SNX1 residues 1-70 (domain or fragment, human, UniProt Q13596 1-70, looked up) MASGGGGCSASERLPPPFPGLEPESEGAAGGSEPEAGDSDTEGEDIFTGAAVVSKHQSPKITTSLLPINN",binds,
"GST-SNX1 residues 1-80 (domain or fragment, human, UniProt Q13596 1-80, looked up) MASGGGGCSASERLPPPFPGLEPESEGAAGGSEPEAGDSDTEGEDIFTGAAVVSKHQSPKITTSLLPINNGSKENGIHEE",binds,
"GST-SNX1 (residues 1-90) (domain or fragment, human, UniProt Q13596 1-90, looked up) MASGGGGCSASERLPPPFPGLEPESEGAAGGSEPEAGDSDTEGEDIFTGAAVVSKHQSPKITTSLLPINNGSKENGIHEEQDQEPQDLFA",binds,
"DTEGEDIFTGAAVVSKHQSPK (domain or fragment, human, UniProt Q13596 40-60, looked up) [GST-SNX1 residues 40-60]",binds,
"DTEGEDIFTGAAVVSKHQSPKITTSLLPINN (domain or fragment, human, UniProt Q13596 40-70, looked up) [GST-SNX1 residues 40-70]",binds,

# From PMC8858909 (Advances in biological regulation, 2021)
